Key:
[1] = system: MEK; details: cited from earlier work
[2] = system: NIH3T3 cells; test: G418-resistant colony formation (cell proliferation) in NIH3T3 cells; assay type: cell-based, mouse
[3] = system: NIH3T3 cells; test: Transformed foci formation (cell transformation) in NIH3T3 cells; assay type: cell-based, mouse; details: for Inhibition of cell transformation rates: H-RasV12 transformed cells; for Inhibition of cell transformation (foci formation): transformation by H-ras V12 or v-Src, constructs 1 μg each, FIG. 20
Experimental: Transformed foci formation was assayed in NIH3T3 cells transfected with H-ras V12 or v-Src (0.25 ng) plus constructs (1 μg each).
Additionally, experiments where inhibition of ERK signaling using ERK ligands of the invention was compared to siRNAs and a small molecule inhibitor. The commercial siRNAs were designed for target specificity to either the ERK1 (sc-29307) or ERK2 (sc-35335) isoforms (Santa Cruz Biotechnology, Inc.). The small molecule inhibitor, UO126 (1,4-diamino-2,3-dicyano-1,4-bis(2-aminophenylthio) butadiene), inhibits ERK signaling through its upstream effector, MEK, and ERK is the only known substrate for MEK. Assays performed were phenotypic assays. The effects of inhibiting ERK activity were measured by looking at functional properties of the cells associated with the MAPK signaling pathway, such as, cell proliferation and transformation. The MAPK signaling cascade in these experiments is initiated by transfection of the cells with a vector containing a constitutively active proto-oncogene, either H-RasV12 or v-Src, which eventually causes the cells to acquire enhanced growth rate (colony formation) and cell transformation rate (foci formation). Inhibition of ERK activity in this cascade will result in reduced rates of proliferation or transformation as measured by numbers of G418-resitant colonies or foci.
Next, the effect of ERK inhibition on cell transformation was investigated using two means of initiating signaling cascades that lead to this biological property (FIG. 20). The first method is the constitutively active Ras mutant used herein above. The second is a constitutively active nonreceptor tyrosine kinase v-Src mutant (pp 60v-src) that also leads to cell transformation, potentially by multiple signaling pathways including the Ras-Raf-MEK-ERK pathway. […] However, when transformation was initiated with v-Src, there was a difference in the inhibition specificity arising from use of SEQ ID NO:1 localized to the ER and PLA. […] That is, ER-localized SEQ ID NO:1 has a significant effect on transformation induced by H-RasV12 but little to no effect when transformation is induced by v-Src.

[4] = system: ERK; test: Localized inhibition of ERK-mediated myelin basic protein phosphorylation in Cos7 cells; assay type: cell-based
Source text: A constitutively-active form of the RasV12 protein, a known activator of MAPK signaling pathways, was used to activate ERK kinase in defined regions of Cos7 cells. Several fusion proteins as described by Matallanas et al. Mol Cell Biol. 2006 January; 26(1):100-116 (hereby incorporated by reference), were used to activate ERK kinase in specific subcellular compartments. The constitutively-active RasV12 protein promoted cell-wide activation of ERK. The Lck-RasV 12 fusion protein activated ERK-protein associated with lipid rafts in or near the plasma membrane. […] Lane 1: control. Lane 2: ERK activity in cells expressing active Lck-RasV12 fusion protein. Lane 3: ERK activity in cells co-expressing active Lck-RasV12 fusion protein, and ERK decoy protein (ER localization signal, a c-Myc epitope tag, and the ERK polyligand of SEQ ID NO:1). Lane 4: ERK activity in cells co-expressing active Lck-RasV12 fusion protein, and CAT fragment-containing ER localization control protein. Lane 5: ERK activity in cells expressing active M1-RasV12 fusion protein. Lane 6: ERK activity in cells co-expressing active M1-RasV12 fusion protein, and ERK decoy protein. Lane 7: ERK activity in cells co-expressing active M1-RasV12 fusion protein, and CAT fragment-containing ER localization control protein. […]
The localized ERK ligands were detected by immunostaining for the c-myc epitope tag.

[5] = pancellular polyligand, vector 1 μg, colonies counted after 15 days, FIG. 18
[6] = SEQ ID NO:1 fused to localization signals, constructs 1 μg each, 15 days, FIG. 19

Row | Molecule | Inhibition of cell transformation rates [3] [%] | Inhibition of cell transformation (foci formation) [3] | Inhibition of cell proliferation (G418-resistant colony formation) [2, 5] | Inhibition of cell proliferation (G418-resistant colony formation) [2, 6] | also measured
1 | N#CC(=C(N)Sc1ccccc1N)C(C#N)=C(N)Sc1ccccc1N [UO126, 1,4-diamino-2,3-dicyano-1,4-bis(2-aminophenylthio) butadiene, reference compound] | – | – | – | – | Potency for MEK [1]: ~70 nM; Inhibition of colony formation ([2]; UO126 1 μM, colonies counted after 15 days, FIG. 18): very effective
2 | SEQ ID NO:1: ERK heteropolyligand A-S1-B-S2-C-S3-D-S4-E-S5-F of SEQ ID NOS:91, 97, 28, 29, 30, 31, Xaa alanine, with spacers (protein, Synthetic polyligand) MPKKKPTPIQLNPAAKGRKPRDLELPAAAATGPLAPGPFGAGAYSPTAPTYSPTAPKKKGGGGAPRAPGGRRAGAGRRPRAPAKLSFFFPS | ~50 | inhibited cell transformation | partial inhibition | – | ERK activity in the endoplasmic reticulum reduced (MBP phosphorylation) ([4]; Cos7 cells with ER-active ERK (M1-RasV12), SEQ ID NO:1 co-expressed as fusion with ER localization signal and c-Myc tag): approximately 60%; Inhibition of ERK activity as measured by phosphorylation of myelin basic protein (MBP) ([4]; ERK activated at plasma membrane, ER or cell wide by localized Ras overexpression): location-selective inhibition of ERK activity at the endoplasmic reticulum
3 | PLA-localized SEQ ID NO:1: SEQ ID NO:1 targeted to the plasma membrane (protein, left off: small tags and cut ends) MPKKKPTPIQLNPAAKGRKPRDLELPAAAATGPLAPGPFGAGAYSPTAPTYSPTAPKKKGGGGAPRAPGGRRAGAGRRPRAPAKLSFFFPS | ~50 | – | – | greatest degree of inhibition | Decrease in transformation ([3]; transformation initiated with v-Src): ~60%
4 | NXP: SEQ ID NO:1 fused to a nuclear-exclusion localization signal and c-Myc epitope tag (protein, left off: small tags and cut ends) MPKKKPTPIQLNPAAKGRKPRDLELPAAAATGPLAPGPFGAGAYSPTAPTYSPTAPKKKGGGGAPRAPGGRRAGAGRRPRAPAKLSFFFPS | – | – | – | slight inhibition | –
5 | NLS: SEQ ID NO:1 fused to a nuclear localization signal and c-Myc epitope tag (protein, left off: small tags and cut ends) MPKKKPTPIQLNPAAKGRKPRDLELPAAAATGPLAPGPFGAGAYSPTAPTYSPTAPKKKGGGGAPRAPGGRRAGAGRRPRAPAKLSFFFPS | – | – | – | slight inhibition | –
6 | SEQ ID NO:5: ERK heteropolyligand of SEQ ID NOS:32, 98, 33, 34, 35, 100, 36, 37, 107, Xaa alanine, with spacers (protein, Synthetic polyligand) PPLMAPPFYPQKGRKPRDLELPLAAAAKQAEAVTAPRGAGAKNIVTPRAPPPSQGKGGGGTLSPIAPRAPAKLSFQFPSSAGPGAEFLKPIESSILAQRRVRKLPSTAGAGKRELVEPLAPSGEAPNQALLRAAGGYSPTAPTYSPTAPKKKGGAATPTAAHSGSHLFGFP | ~50 | inhibited cell transformation | partial inhibition | – | –
